For test [1], the target named is recombinant phosphorylated tau protein monomer (35 AWM). Nature of the test: competitive ELISA, 35 AWM (1 ng); free tau-pS413 detected with biotinylated Ta1505-mIgG2a (competitor). (ELISA stands for enzyme-linked immunosorbent assay.)
Test [2] deals with T1, tau species in African Green Monkey (AGM) CSF (African Green Monkey).
T1 construct: also called Fresh African Green Monkey (AGM) CSF
As to the kind of experiment: competitive ELISA, fresh AGM CSF (75 µl of neat CSF); competitor biotinylated Ta1505-mIgG2a. On the procedure:
Binding affinities of various anti-tau-pS413 antibodies described herein for endogenous tau species were determined in brain homogenates and CSF samples from AD patients and preclinical models. Briefly, samples were pre-incubated with different concentrations of various anti-tau-pS413 antibodies, or respective isotype controls. Following a one-hour pre-incubation period, the antigen-antibody (Ag-Ab) mixture was added to plates pre-coated with a total tau capture antibody (Innotest ELISA kit).
Tissue homogenates were prepared using 1% sarkosyl buffer with several high-speed centrifugation steps to enrich for insoluble proteins including tau.

For orientation: EC50 means the concentration giving half of the maximal effect.

B1: HmzTa1505-hIgG4-S228P (antibody)
heavy: not shown
light: DIVMTQSPLSLPVTLGEPASISCRSSQNIVHSNANTYLEWYLQKPGQSPQLLIYTVSNRFSGVPDRFSGSGSGTDFTLKISRVEAEDLGVYYCFQGSHLPLTFGGGTKVEIKRTVAAPSVFIFPPSDEQLKSGTASVVCLLNNFYPREAKVQWKVDNALQSGNSQESVTEQDSKDSTYSLSSTLTLSKADYEKHKVYACEVTHQGLSSPVTKSFNRGEC
For the molecule B1, the EC50 in test [1] stood at 6.73 nM; in test [2], 2.08 nM.

B2: V8-AFM-hIgG1-LALA-YTE (antibody)
heavy: EVQLVESGGGLVQPGGSLRLSCAASGFTFSSFALNWVRQAPGKGLEWVGHIRSETNNYVTFYAASVKGRFTVSRDDSQNTAYLQMNSLKTEDTATYYCVRRGPRDSWFGYWGQGTLVTVSSASTKGPSVFPLAPSSKSTSGGTAALGCLVKDYFPEPVTVSWNSGALTSGVHTFPAVLQSSGLYSLSSVVTVPSSSLGTQTYICNVNHKPSNTKVDKKVEPKSCDKTHTCPPCPAPEAAGGPSVFLFPPKPKDTLYITREPEVTCVVVDVSHEDPEVKFNWYVDGVEVHNAKTKPREEQYNSTYRVVSVLTVLHQDWLNGKEYKCKVSNKALPAPIEKTISKAKGQPREPQVYTLPPSRDELTKNQVSLTCLVKGFYPSDIAVEWESNGQPENNYKTTPPVLDSDGSFFLYSKLTVDKSRWQQGNVFSCSVMHEALHNHYTQKSLSLSPGK
light: DIVMTQSPLSLPVTLGEPASISCRSSQKIVHRNANTYLEWYLQKPGQSPQLLIYTVSNRFSGVPDRFSGSGSGTDFTLKISRVEAEDLGVYYCFQGSYLPLTFGGGTKVEIKRTVAAPSVFIFPPSDEQLKSGTASVVCLLNNFYPREAKVQWKVDNALQSGNSQESVTEQDSKDSTYSLSSTLTLSKADYEKHKVYACEVTHQGLSSPVTKSFNRGEC
notes: also called V8-AFM-IgG1-LALA-YTE
For the molecule B2, the EC50 in test [1] worked out at 0.055 nM; in test [2], 0.008 nM.

For the origin of these results see patent US20230265175A1 (Merck Sharp & Dohme, published 2023).
